{"source": "paper PMC4599338", "about": "(Microbial Cell Factories, 2015)", "binders": {"B1": {"name": "AC (VHH)", "VHH": "DVQLQASGGGLVQPGGSLRLTCAASGLIFGSYAMGWFRQAPGKAREFVAAISWSGGDTYADSVKGRFTISRDNAKNTVYLQMNSLEPEDTAVYSCAAVGSKYYISKDAKDYGYWGQGTQVTVSS"}, "B2": {"name": "sdAb clone L1-G2 (VHH)", "VHH": "EVQLQASGGGLVQAGGSLRLSCTASGRAFSTTNMGWFRQAPGKEREFVTRVNWSGGVTSYADSVKGRFTLSRDNTKNTVYLQMDSLKPEDTAVYYCAGSTVWSTDRKHYNYWGQGTQVTVSS"}, "B3": {"name": "sdAb clone L1-G2+ (VHH)", "VHH": "B2 VHH with T49C, L70C"}, "B4": {"name": "sdAb clone L1-G2+neg (VHH)", "VHH": "B2 VHH with Q5V, A6E, A14D, G16D, T49C, L70C"}, "B5": {"name": "sdAb clone L1-G2+neg2 (VHH)", "VHH": "B2 VHH with Q5V, A6E, A14D, G16D, T49C, L70C, R72A"}}, "note": "Substitutions are numbered along the chain they refer to."}
{"target": "Staphylococcal enterotoxin B (Staphylococcus aureus, strain , UniProt P01552)", "test": "not given", "conditions": "not given"}
{"binder": "B1", "binding result": "binds"}
{"target": "Vaccinia Virus, Western Reserve, L1R Protein with C-Terminal Histidine Tag, Recombinant from baculovirus (Vaccinia virus, Western Reserve, UniProt P07612)", "test": "SPR; […] (100 to 0 nM, […], dissociation 600 s; […]; Langmuir model; […]", "conditions": "both partners purified", "units": {"Kd": "nM", "koff": "s⁻¹", "kon": "M⁻¹ s⁻¹"}}
{"binder": "B2", "Kd": 1.1, "koff": 0.00063, "kon": 580000}
{"binder": "B3", "Kd": 2.4, "koff": 0.0013, "kon": 590000}
{"binder": "B4", "Kd": 3.3, "koff": 0.0014, "kon": 420000}
{"binder": "B5", "Kd": 23, "koff": 0.013, "kon": 540000}
